The values below come from publication PMC7337493 (The Journal of Cell Biology, 2020).

B1: FIP200NTD (domain or fragment, human, UniProt Q8TDY2 1-640, looked up)
chain: MKLYVFLVNTGTTLTFDTELTVQTVADLKHAIQSKYKIAIQHQVLVVNGGECMAADRRVCTYSAGTDTNPIFLFNKEMILCDRPPAIPKTTFSTENDMEIKVEESLMMPAVFHTVASRTQLALEMYEVAKKLCSFCEGLVHDEHLQHQGWAAIMANLEDCSNSYQKLLFKFESIYSNYLQSIEDIKLKLTHLGTAVSVMAKIPLLECLTRHSYRECLGRLDSLPEHEDSEKAEMKRSTELVLSPDMPRTTNESLLTSFPKSVEHVSPDTADAESGKEIRESCQSTVHQQDETTIDTKDGDLPFFNVSLLDWINVQDRPNDVESLVRKCFDSMSRLDPRIIRPFIAECRQTIAKLDNQNMKAIKGLEDRLYALDQMIASCGRLVNEQKELAQGFLANQKRAENLKDASVLPDLCLSHANQLMIMLQNHRKLLDIKQKCTTAKQELANNLHVRLKWCCFVMLHADQDGEKLQALLRLVIELLERVKIVEALSTVPQMYCLAVVEVVRRKMFIKHYREWAGALVKDGKRLYEAEKSKRESFGKLFRKSFLRNRLFRGLDSWPPSFCTQKPRKFDCELPDISLKDLQFLQSFCPSEVQPFLRVPLLCDFEPLHQHVLALHNLVKAAQSLDEMSQTITDLLSEQK
notes: FIP200 (RB1CC1), human, N-terminal domain, residues 1-640 of 1,594; the form printed without a tag in NSEM, MALS, HDX-MS and cryo-EM samples; also called FIP200 N-terminal domain; untagged FIP200NTD

Series [1] deals with the molecule itself. The series can be described thus: SEC-MALS; Superose 6 Increase 10/300 GL; 50 mM Tris, 150 mM NaCl, 1 mM TCEP, pH 7.8; sample ~6–10 µM, 100 µl injected.
Series [2] deals with the molecule itself. Briefly: negative stain EM; purified samples diluted to ~50–200 nM, uranyl acetate stain, 2D classification; MBP tags used to mark positions.
Series [3] has as its target B1. The series can be described thus: SEC-MALS; Superose 6 Increase 10/300 GL; 50 mM Tris, 150 mM NaCl, 1 mM TCEP, pH 7.8; sample ~6–10 µM, 100 µl injected. Conditions: both partners purified.
In series [4] the target is B1. The series can be described thus: negative stain EM; purified samples diluted to ~50–200 nM, uranyl acetate stain, 2D classification; MBP tags used to mark positions. Conditions: both partners purified.

With B1, the “stoichiometry N” value in series [1] was 2.

B2: MBP-FIP200NTD (domain or fragment, human, UniProt Q8TDY2 1-640, looked up)
chain: MKLYVFLVNTGTTLTFDTELTVQTVADLKHAIQSKYKIAIQHQVLVVNGGECMAADRRVCTYSAGTDTNPIFLFNKEMILCDRPPAIPKTTFSTENDMEIKVEESLMMPAVFHTVASRTQLALEMYEVAKKLCSFCEGLVHDEHLQHQGWAAIMANLEDCSNSYQKLLFKFESIYSNYLQSIEDIKLKLTHLGTAVSVMAKIPLLECLTRHSYRECLGRLDSLPEHEDSEKAEMKRSTELVLSPDMPRTTNESLLTSFPKSVEHVSPDTADAESGKEIRESCQSTVHQQDETTIDTKDGDLPFFNVSLLDWINVQDRPNDVESLVRKCFDSMSRLDPRIIRPFIAECRQTIAKLDNQNMKAIKGLEDRLYALDQMIASCGRLVNEQKELAQGFLANQKRAENLKDASVLPDLCLSHANQLMIMLQNHRKLLDIKQKCTTAKQELANNLHVRLKWCCFVMLHADQDGEKLQALLRLVIELLERVKIVEALSTVPQMYCLAVVEVVRRKMFIKHYREWAGALVKDGKRLYEAEKSKRESFGKLFRKSFLRNRLFRGLDSWPPSFCTQKPRKFDCELPDISLKDLQFLQSFCPSEVQPFLRVPLLCDFEPLHQHVLALHNLVKAAQSLDEMSQTITDLLSEQK
notes: FIP200 (RB1CC1), human, N-terminal domain, residues 1-640; also called N-terminal MBP–tagged FIP200NTD; not shown: MBP, N-terminal, kept
As for B2, the “stoichiometry N” value in series [2] was determined as 2.

B3: FIP200NTD–MBP (domain or fragment, human, UniProt Q8TDY2 1-640, looked up)
chain: MKLYVFLVNTGTTLTFDTELTVQTVADLKHAIQSKYKIAIQHQVLVVNGGECMAADRRVCTYSAGTDTNPIFLFNKEMILCDRPPAIPKTTFSTENDMEIKVEESLMMPAVFHTVASRTQLALEMYEVAKKLCSFCEGLVHDEHLQHQGWAAIMANLEDCSNSYQKLLFKFESIYSNYLQSIEDIKLKLTHLGTAVSVMAKIPLLECLTRHSYRECLGRLDSLPEHEDSEKAEMKRSTELVLSPDMPRTTNESLLTSFPKSVEHVSPDTADAESGKEIRESCQSTVHQQDETTIDTKDGDLPFFNVSLLDWINVQDRPNDVESLVRKCFDSMSRLDPRIIRPFIAECRQTIAKLDNQNMKAIKGLEDRLYALDQMIASCGRLVNEQKELAQGFLANQKRAENLKDASVLPDLCLSHANQLMIMLQNHRKLLDIKQKCTTAKQELANNLHVRLKWCCFVMLHADQDGEKLQALLRLVIELLERVKIVEALSTVPQMYCLAVVEVVRRKMFIKHYREWAGALVKDGKRLYEAEKSKRESFGKLFRKSFLRNRLFRGLDSWPPSFCTQKPRKFDCELPDISLKDLQFLQSFCPSEVQPFLRVPLLCDFEPLHQHVLALHNLVKAAQSLDEMSQTITDLLSEQK
notes: FIP200 (RB1CC1), human, N-terminal domain, residues 1-640 of 1,594; also called FIP200(N-640)–MBP; FIP200-MBP; not shown: GST, N-terminal, cleaved; MBP, C-terminal, kept
Regarding B3, in series [2], the “stoichiometry N” value was determined as 2.

B4: ATG13(363-C) (domain or fragment, human, UniProt O75143 363-517, looked up)
chain: HDVLETIFVRKVGAFVNKPINQVTLTSLDIPFAMFAPKNLELEDTDPMVNPPDSPETESPLQGSLHSDGSSGGSSGNTHDDFVMIDFKPAFSKDDILPMDLGTFYREFQNPPQLSSLSIDIGAQSMAEDLDSLPEKLAVHEKNVREFDAFVETLQ
notes: ATG13, human, residue 363 to the C terminus
For B4, the “stoichiometry N” value with FIP200NTD [3] was 0.5 molecules per molecule of FIP200NTD (2:1 FIP200NTD:binder).

B5: MBP-ATG13MR (domain or fragment, human, UniProt O75143 363-460, looked up)
chain: HDVLETIFVRKVGAFVNKPINQVTLTSLDIPFAMFAPKNLELEDTDPMVNPPDSPETESPLQGSLHSDGSSGGSSGNTHDDFVMIDFKPAFSKDDILP
notes: ATG13, human, middle region, residues 363-460; not shown: MBP, N-terminal, kept
For B5, the results for the “stoichiometry N” value with FIP200NTD [3] and in the series with FIP200NTD [4] were 0.5 molecules per molecule of FIP200NTD (2:1 FIP200NTD:binder) and 1 per FIP200NTD dimer, respectively.

As usually defined, the stoichiometry N is a count of units in the complex or per binding partner.
